For data set [1], the target named is Cap1-6xHis (aa 1-298) (C. trachomatis serovar D). Put plainly: SEC; proteins eluted from Ni2+-NTA (complexes formed by co-expression in E. coli) on a 16/60 Sephacryl S-100 HR column; 10 mM Tris-HCl/50 mM phosphate buffer/150 mM NaCl pH 8.0; sizes by a low molecular weight calibration kit. (In general: In gel filtration, larger molecules generally elute earlier.)

Data set [2] concerns the molecule itself. The data set is described as follows: cross-linking; purified 6xHis-Mcsc treated with 0.25-1 mM DSP for 20 min at 4 C; SDS-PAGE with or without 50 mM DTT; immunoblot with Mcsc antibodies.
The next data set has as its target T1, Ct618-6xHis (aa 1-189) (C. trachomatis serovar D, UniProt O84623 1-189).
T1 construct: Ct618 of C. trachomatis, amino-terminal domain, aa 1-189; printed as Ct618-6xHis; also called 6xHis-tagged Ct618; amino-terminal domain of Ct618; source: E. coli BL21 DE3 (bicistronic pET-24d with Mcsc), in lysate; purified (Ni2+-NTA agarose, gel filtration)
T1 sequence: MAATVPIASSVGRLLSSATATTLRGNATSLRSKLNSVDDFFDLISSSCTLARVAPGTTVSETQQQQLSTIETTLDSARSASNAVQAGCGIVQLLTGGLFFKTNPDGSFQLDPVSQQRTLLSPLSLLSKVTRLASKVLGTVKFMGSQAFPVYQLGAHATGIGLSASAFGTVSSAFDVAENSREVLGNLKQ
Put plainly: SEC; proteins eluted from Ni2+-NTA (complexes formed by co-expression in E. coli) on a 16/60 Sephacryl S-100 HR column; 10 mM Tris-HCl/50 mM phosphate buffer/150 mM NaCl pH 8.0; sizes by a low molecular weight calibration kit. To be noted: both partners purified.

Molecule “Mcsc, untagged, co-expressed from a bicistronic vector (from UniProt O84262 1-163) (natural protein)” had a stoichiometry N (Mcsc subunits per effector protein) in data set [1] of 2.

B1: 6xHis-Mcsc (natural protein)
chain: MTTWTLNHNNLTKFLTHAQLEPSLERESGLIYITVPAGEHELPLFFVIRNEGEVLQLVCYFPYQIQQNQRDTTARLLHLVNRDIDIPGFGMDEEQNIIFYRLVIPCLKGEINEDLLRVYIDTIKLICDSFFHAIGLISTGNMDLDELKKQAKLENNQSDQLEP
notes: Ct260 (Mcsc) of C. trachomatis, amplified from serovar D genomic DNA; printed as 6xHis-Mcsc, vector pET15b; also called hexahistidine-tagged Mcsc (Ct260); 6xHis-tagged Mcsc dimers; source: E. coli BL21 DE3 (pET15b-Mcsc), purified (Ni2+-NTA agarose, gel filtration)
Turning to B1, in data set [2], the stoichiometry N (as a rule, the number of molecules, sites or subunits per partner or assembly) stood at 2.

B2: Mcsc, untagged, co-expressed from a bicistronic vector (natural protein)
chain: MTTWTLNHNNLTKFLTHAQLEPSLERESGLIYITVPAGEHELPLFFVIRNEGEVLQLVCYFPYQIQQNQRDTTARLLHLVNRDIDIPGFGMDEEQNIIFYRLVIPCLKGEINEDLLRVYIDTIKLICDSFFHAIGLISTGNMDLDELKKQAKLENNQSDQLEP
notes: Ct260 (Mcsc) of C. trachomatis, amplified from serovar D genomic DNA; also called untagged Mcsc; Ct260; source: E. coli BL21 DE3 (bicistronic pET-24d), in lysate; co-purified with the 6xHis-tagged effector (Ni2+-NTA agarose, gel filtration)
Regarding B2, the “stoichiometry N” value with Ct618-6xHis (aa 1-189) is 2 Mcsc subunits per effector protein.

The values above are taken from PMC2734247, “The Chlamydia Type III Secretion System C-ring Engages a Chaperone-Effector Protein Complex” (PLoS Pathogens, 2009).
